Measured values as given in publication PMC5704011.
Where two headings read alike, the source gives them in different places.

How the values were obtained:
[1] = target: PDGFRα (Homo sapiens) (UniProt P16234); conditions: cited from earlier work
Target sequence in this assay (P16234 24-528): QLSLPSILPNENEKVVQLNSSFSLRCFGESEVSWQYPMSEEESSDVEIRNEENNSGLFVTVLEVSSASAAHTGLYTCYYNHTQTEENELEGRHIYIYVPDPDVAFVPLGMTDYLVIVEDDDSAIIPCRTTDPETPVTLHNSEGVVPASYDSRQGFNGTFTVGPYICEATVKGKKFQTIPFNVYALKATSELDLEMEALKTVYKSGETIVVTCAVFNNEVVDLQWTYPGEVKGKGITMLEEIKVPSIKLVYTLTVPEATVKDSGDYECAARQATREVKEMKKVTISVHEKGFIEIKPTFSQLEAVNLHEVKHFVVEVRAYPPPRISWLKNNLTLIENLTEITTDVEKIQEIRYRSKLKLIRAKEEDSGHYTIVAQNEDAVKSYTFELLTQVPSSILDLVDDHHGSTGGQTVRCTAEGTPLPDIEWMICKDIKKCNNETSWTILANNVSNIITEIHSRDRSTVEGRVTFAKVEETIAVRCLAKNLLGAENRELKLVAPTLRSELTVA

[2] = target: PDGFRα (Homo sapiens) (UniProt P16234); conditions: cited from earlier work; remark: listed apart in the source
Target sequence in this assay (P16234 24-528): as above

[3] = target: VEGFR2 (Homo sapiens) (UniProt P35968); experiment: SPR; conditions: cited from earlier work
[4] = target: VEGFR1 (Homo sapiens) (UniProt P17948); experiment: SPR; conditions: cited from earlier work
[5] = target: PDGFRα (Homo sapiens) (UniProt P16234); experiment: SPR; BIAcore 3000, 25 °C, CM5 chip; receptor immobilised by amine coupling (~200-500 R.U.); ligand injected at 10, 20 and 40 nM, 30 uL/min, 10 min dissociation; HBS-EP pH 7.4 (10 mM HEPES, 3 mM EDTA, 150 mM NaCl, 0.005% TWEEN-20); angiopoietin-4 reference cell subtracted; global 1:1 Langmuir fit; χ2-to-Rmax > 1.0 or negative association curves taken as no true interaction
Target sequence in this assay (P16234 24-1089): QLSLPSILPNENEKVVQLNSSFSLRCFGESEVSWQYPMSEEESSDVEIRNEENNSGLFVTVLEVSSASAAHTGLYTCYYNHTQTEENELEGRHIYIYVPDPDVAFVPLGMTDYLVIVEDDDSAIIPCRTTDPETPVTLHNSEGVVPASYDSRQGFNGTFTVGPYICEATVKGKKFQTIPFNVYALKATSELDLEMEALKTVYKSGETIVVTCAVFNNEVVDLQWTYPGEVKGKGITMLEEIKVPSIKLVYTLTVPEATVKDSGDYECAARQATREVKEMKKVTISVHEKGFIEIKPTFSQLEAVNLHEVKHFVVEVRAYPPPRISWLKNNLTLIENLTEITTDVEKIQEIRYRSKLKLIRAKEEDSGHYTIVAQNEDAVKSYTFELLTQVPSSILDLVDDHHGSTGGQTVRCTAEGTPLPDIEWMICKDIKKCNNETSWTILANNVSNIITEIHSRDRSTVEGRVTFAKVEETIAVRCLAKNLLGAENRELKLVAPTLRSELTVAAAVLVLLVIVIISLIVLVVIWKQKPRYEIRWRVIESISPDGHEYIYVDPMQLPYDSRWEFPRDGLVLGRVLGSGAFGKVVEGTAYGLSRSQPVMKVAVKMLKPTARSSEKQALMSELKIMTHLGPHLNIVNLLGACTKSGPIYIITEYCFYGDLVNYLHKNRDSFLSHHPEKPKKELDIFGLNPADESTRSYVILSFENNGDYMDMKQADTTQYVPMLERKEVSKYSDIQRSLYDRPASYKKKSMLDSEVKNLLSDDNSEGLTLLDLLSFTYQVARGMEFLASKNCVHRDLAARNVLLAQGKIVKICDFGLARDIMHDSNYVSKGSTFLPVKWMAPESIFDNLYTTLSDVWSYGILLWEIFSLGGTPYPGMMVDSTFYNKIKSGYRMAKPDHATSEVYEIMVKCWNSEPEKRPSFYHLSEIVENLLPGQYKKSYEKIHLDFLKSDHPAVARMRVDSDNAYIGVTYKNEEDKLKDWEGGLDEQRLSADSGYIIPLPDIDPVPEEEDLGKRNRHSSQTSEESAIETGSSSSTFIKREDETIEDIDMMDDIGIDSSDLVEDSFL

[6] = target: human recombinant PDGFRβ (human) (UniProt P09619); experiment: as above
[7] = target: VEGFR2 (Homo sapiens) (UniProt P35968); experiment: SPR; BIAcore 3000, 25 °C, CM5 chip; receptor immobilised by amine coupling (~200-500 R.U.); ligand injected at 40, 20 and 10 nM in HBS-EP pH 7.4 (10 mM HEPES, 3 mM EDTA, 150 mM NaCl, 0.005% TWEEN-20); angiopoietin-4 reference cell subtracted; global 1:1 Langmuir fit; χ^2-to-Rmax < 1.0 taken as a true interaction
Target sequence in this assay (P35968 20-764): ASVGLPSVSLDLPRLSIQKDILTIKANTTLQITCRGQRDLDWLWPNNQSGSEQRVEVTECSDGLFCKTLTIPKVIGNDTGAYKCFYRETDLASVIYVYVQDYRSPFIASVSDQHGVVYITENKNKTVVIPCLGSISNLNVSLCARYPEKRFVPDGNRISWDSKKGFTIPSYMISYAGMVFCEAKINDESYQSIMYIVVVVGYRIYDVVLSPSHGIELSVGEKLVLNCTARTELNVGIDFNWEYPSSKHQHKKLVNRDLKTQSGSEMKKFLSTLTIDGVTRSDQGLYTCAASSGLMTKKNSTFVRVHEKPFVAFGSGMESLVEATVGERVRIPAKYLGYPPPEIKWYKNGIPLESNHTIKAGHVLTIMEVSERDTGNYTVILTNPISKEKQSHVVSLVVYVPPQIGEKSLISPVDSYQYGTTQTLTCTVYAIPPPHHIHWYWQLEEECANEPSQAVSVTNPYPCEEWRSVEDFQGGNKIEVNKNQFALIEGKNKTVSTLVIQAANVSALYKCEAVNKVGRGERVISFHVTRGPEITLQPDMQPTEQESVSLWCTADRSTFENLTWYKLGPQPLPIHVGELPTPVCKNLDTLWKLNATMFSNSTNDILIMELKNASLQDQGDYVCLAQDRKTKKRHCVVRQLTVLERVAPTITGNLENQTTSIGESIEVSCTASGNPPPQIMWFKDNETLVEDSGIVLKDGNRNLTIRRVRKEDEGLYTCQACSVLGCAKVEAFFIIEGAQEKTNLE

[8] = target: VEGFR1 (Homo sapiens) (UniProt P17948); experiment: as above
Target sequence in this assay (P17948 27-758): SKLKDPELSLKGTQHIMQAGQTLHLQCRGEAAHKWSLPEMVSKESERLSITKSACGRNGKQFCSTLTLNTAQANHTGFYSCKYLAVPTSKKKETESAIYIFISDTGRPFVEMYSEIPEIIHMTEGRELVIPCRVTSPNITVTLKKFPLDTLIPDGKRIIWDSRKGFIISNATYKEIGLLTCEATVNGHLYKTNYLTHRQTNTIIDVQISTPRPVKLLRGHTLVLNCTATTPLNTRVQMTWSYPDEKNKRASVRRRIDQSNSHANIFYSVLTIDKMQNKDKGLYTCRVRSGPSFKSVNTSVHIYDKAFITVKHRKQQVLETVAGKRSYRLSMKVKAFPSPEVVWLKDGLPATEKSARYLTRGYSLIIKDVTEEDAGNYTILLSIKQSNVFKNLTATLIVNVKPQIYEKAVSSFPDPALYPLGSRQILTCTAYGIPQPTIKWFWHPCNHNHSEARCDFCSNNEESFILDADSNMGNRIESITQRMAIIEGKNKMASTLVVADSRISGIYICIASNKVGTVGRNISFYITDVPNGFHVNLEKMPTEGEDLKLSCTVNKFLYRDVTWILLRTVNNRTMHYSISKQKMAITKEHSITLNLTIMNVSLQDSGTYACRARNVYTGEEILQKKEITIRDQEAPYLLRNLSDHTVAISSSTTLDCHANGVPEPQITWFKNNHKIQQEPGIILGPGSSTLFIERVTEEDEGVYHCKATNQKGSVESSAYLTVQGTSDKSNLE

[9] = target: VEGFR2 (Homo sapiens) (UniProt P35968); experiment: SPR; BIAcore 3000, 25 °C, CM5 chip; receptor immobilised by amine coupling (~200-500 R.U.); ligand injected at 10, 20 and 40 nM, 30 uL/min, 10 min dissociation; HBS-EP pH 7.4 (10 mM HEPES, 3 mM EDTA, 150 mM NaCl, 0.005% TWEEN-20); angiopoietin-4 reference cell subtracted; global 1:1 Langmuir fit; χ2-to-Rmax > 1.0 or negative association curves taken as no true interaction
Target sequence in this assay (P35968 20-764): as the sequence (P35968 20-764) above

[10] = target: VEGFR1 (Homo sapiens) (UniProt P17948); experiment: as above
Target sequence in this assay (P17948 27-758): as the sequence (P17948 27-758) above

Sequence of human recombinant PDGFRβ (human) (P09619 33-1106): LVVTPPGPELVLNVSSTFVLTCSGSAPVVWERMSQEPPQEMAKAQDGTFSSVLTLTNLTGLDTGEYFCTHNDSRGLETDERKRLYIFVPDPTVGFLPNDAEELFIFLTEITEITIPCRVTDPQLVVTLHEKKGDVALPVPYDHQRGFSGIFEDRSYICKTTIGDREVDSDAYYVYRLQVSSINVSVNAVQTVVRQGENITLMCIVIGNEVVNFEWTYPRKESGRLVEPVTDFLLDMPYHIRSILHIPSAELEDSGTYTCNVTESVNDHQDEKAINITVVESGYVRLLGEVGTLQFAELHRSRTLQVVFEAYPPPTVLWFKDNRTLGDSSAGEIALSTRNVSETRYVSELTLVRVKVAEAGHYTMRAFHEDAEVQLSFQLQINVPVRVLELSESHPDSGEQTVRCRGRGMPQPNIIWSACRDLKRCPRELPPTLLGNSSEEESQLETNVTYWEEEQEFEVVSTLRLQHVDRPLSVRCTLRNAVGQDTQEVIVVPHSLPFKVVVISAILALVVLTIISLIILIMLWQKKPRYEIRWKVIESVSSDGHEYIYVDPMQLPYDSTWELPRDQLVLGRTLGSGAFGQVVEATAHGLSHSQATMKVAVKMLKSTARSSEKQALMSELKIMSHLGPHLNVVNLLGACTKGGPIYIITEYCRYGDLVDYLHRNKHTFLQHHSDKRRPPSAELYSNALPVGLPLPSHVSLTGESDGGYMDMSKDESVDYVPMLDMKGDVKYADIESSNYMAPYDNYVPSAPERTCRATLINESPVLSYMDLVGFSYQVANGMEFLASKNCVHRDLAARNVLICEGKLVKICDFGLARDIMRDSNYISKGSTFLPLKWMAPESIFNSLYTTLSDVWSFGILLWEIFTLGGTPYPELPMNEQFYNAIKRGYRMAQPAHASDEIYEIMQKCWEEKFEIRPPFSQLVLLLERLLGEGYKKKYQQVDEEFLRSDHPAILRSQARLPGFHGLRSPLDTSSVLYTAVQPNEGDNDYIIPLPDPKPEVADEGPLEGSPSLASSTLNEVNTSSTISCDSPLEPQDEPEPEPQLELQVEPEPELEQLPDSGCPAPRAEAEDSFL
Sequence of VEGF-A (P15692 whole entry): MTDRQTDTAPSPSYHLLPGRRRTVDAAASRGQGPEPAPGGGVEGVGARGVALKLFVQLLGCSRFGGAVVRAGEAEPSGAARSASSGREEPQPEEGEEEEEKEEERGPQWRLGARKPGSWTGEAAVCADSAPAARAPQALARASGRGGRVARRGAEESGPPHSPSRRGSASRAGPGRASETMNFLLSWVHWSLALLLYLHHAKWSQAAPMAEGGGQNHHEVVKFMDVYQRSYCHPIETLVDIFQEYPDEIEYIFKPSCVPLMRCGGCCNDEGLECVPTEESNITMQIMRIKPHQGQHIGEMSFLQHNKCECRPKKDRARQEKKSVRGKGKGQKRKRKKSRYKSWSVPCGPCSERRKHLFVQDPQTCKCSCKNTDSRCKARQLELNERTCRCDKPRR

PDGF-AA (from UniProt P04085)
Kd [1]: 134 nM

PDGF-BB (from UniProt P01127)
Kd [2]: 150 nM

VEGF-A (from UniProt P15692)
Kd [3]: 0.052 nM
Kd [4]: 0.0075 nM

human recombinant PDGF-AA (from UniProt P04085 87-211) (ligand)
koff [5]: 0.00045 s⁻¹
kon [5]: 680 M⁻¹ s⁻¹

human recombinant PDGF-AB (from UniProt P04085 87-211; P01127 82-190) (ligand)
koff [5]: 0.001 s⁻¹
kon [5]: 1200 M⁻¹ s⁻¹
koff [6]: 0.0029 s⁻¹
kon [6]: 1300 M⁻¹ s⁻¹

human recombinant VEGFA (from UniProt P15692 1-395) (ligand)
Kd [7]: 0.0098 nM
kon [7]: 1e+06 M⁻¹ s⁻¹
Kd [8]: 0.001 nM
koff [9]: 9.5e-06 s⁻¹
kon [9]: 970000 M⁻¹ s⁻¹
koff [10]: 4e-07 s⁻¹
kon [10]: 400000 M⁻¹ s⁻¹
koff [6]: 4e-06 s⁻¹
kon [6]: 12000 M⁻¹ s⁻¹
